# Laboratory results: PMC4344507, “Structural and functional characterization of a cell cycle associated HDAC1/2 complex reveals the structural basis for complex assembly and nucleosome targeting” (Nucleic Acids Research, 2015)
# B1: Human DNTTIP1 (56–147) (domain or fragment, UniProt Q9H147 56-147, looked up)
# chain: MTTSFTDPAISMDLLRAVLQPSINEEIQTVFNKYMKFFQKAALNVRDNVGEEVDAEQLIQEACRSCLEQAKLLFSDGEKVIPRLTHELPGIK
# notes: DNTTIP1, human, residues 56-147; Native and selenomethionine substituted protein were both crystallized; six molecules (three dimers) in the asymmetric unit; also called DD; N-terminal dimerization domain; source: E. coli Rosetta-pLysS or B834(DE3), purified (Ni-NTA, Resource Q, Superdex S75)
# Biological target: the molecule itself
# Assay: crystal structure; DNTTIP1 (56–147), hanging drops at 22°C, 100 mM sodium acetate pH 4.6, 14% propan-2-ol; MAD phasing with SeMet protein; P212121
protein,measurement,value
B1,stoichiometry N,2
